Positions count from the first letter of the chain named. Numbers in names are those of the source.
B1: ApoER2‐M2: ApoER2 mutein P253A, T254A, G268A, W269A, R270A (protein, UniProt Q924X6 29-996, looked up, variant P253A T254A G268A W269A R270A)
Low-density lipoprotein …: DPLPGGQGPVKECEEDQFRCRNERCIPLVWRCDEDNDCSDNSDEDDCPKRTCADSDFTCDNGHCIPERWKCDGEEECPDGSDESKATCSSEECPAEKLSCGPTSHKCVPASWRCDGEKDCEGGADEAGCPTLCAPHEFQCSNRSCLASVFVCDGDDDCGDGSDERGCSDPACPPREFRCGGGGTCIPERWVCDRQFDCEDRSDEAAELCGRAGQGTTATPAACAAAAQFTCRSGECIHLAAACDGDRDCKDKSDEADCSPGPCRENEFQCGDGTCVLAIKRCNQERDCPDGSDEAGCLQESTCEGPRRFQCKSGECVDGGKVCDDQRDCRDWSDEPQKVCGLNECLHNNGGCSHICTDLKIGFECTCPAGFQLLDQKTCGDIDECQDPDACSQICVNYKGYFKCECHPGYEMDTLTKNCKAVAGKSPSLIFTNRHEVRRIDLVKRDYSRLIPMLKNVVALDVEVATNRIYWCDLSYRKIYSAHMDKASIPDEQVVLIDEQLHSPEGLAVDWVHKHIYWTDSGNKTISVATTDGRRRCTLFSRELSEPRAIAVDPLRGFMYWSDWGFQAKIEKAGLNGADRQTLVSDNIEWPNGITLDLLSQRLYWVDSKLHQLSSIDFNGGNRKMLIFSTDFLSHPFGVAVFEDKVFWTDLENEAIFSANRLNGLEIAILAENLNNPHDIVIFHELKQPKAADACDLSAQPNGGCEYLCLPAPQISSHSPKYTCACPDTMWLGPDMKRCYRAPQSTSTTTLASAMTRTVPATTRAPGTTIHDPTYQNHSTETPSQTAAAPHSVNVPRAPSTSPSTPSPATSNHSQHYGNEGSQMGSTVTAAVIGVIVPIVVIALLCMSGYLIWRNWKRKNTKSMNFDNPVYRKTTEEEEEDELHIGRTAQIGHVYPAAISNYDRPLWAEPCLGETRDLEDPAPALKELFVLPGEPRSQLHQLPKNPLSELPVVKCKRVALSLEDDGLP
B2: ApoER2‐M8: ApoER2 mutein P253A, T254A, G268A, W269A, R270A, N311A, Q312A, E313A, encoded by Lrp8m (protein, UniProt Q924X6 29-996, looked up, variant P253A T254A G268A W269A R270A N311A Q312A E313A)
Low-density lipoprotein …: B1 Low-density lipoprotein … with N283A, Q284A, E285A
B3: SOST^loop2m: sclerostin mutein with I94A, G95A, R96A, K98A, W99A, encoded by sost^loop2m (protein)
chain: QGWQAFRNDATEVIPGLGEYPEPPPENNQTMNRAENGGRPPHHPYDAKDVSEYSCRELHYTRFLTDGPCRSAKPVTELVCSGQCGPARLLPNAAAAVAAWRPNGPDFRCIPDRYRAQRVQLLCPGGAAPRSRKVRLVASCKCKRLTRFHNQSELKDFGPETARPQKGRKPRPGARGAKANQAELENAY

Columns and labels:
sclerostin loop2 = sclerostin loop2 (Mus musculus, UniProt Q99P68); assay: Pull‐down assay of ApoER2 muteins with sclerostin loop2; format: binding; settings: Figure 6D
Protocol: The interaction residues within ApoER2 to sclerostin loop2 were determined in combination with pull‐down assay and BLI analysis. Based on the interaction residues within ApoER2 to sclerostin loop2, a series of Lrp8 mutations were developed. Based on the interaction residues within sclerostin loop2 to ApoER2, a series of sost mutations were developed.
Cell lysates were collected using RIPA Lysis and Extraction Buffer (Thermo Scientific, 89 901) supplemented with Protease Inhibitor Cocktail (CST, 5871) and centrifuged at 4000 rpm for 30 min at 4 °C, and replaced with binding buffer (PBS buffer, 20 mM imidazole, pH 8.0). After pretreatment with binding buffer three times, 20 µL Ni‐NTA Magnetic Agarose Beads were incubated with 6 µg His‐SOST and 6 µg His‐loop3 peptide, respectively, in binding buffer for 2 h at 4 °C with gentle rotation. The beads carrying His‐SOST and His‐loop3 peptide were then incubated with 500 µL cell lysate supernatant at 4 °C overnight with gentle rotation. To eliminate the influence of non‐specific binding between beads and cell lysate, 20 µL beads and 500 µL cell lysate were incubated under the same conditions. […]
The eluted liquid from pull‐down assay was then mixed with SDS‐PAGE loading buffer and boiled for 10 min at 95 °C to make samples. […] The ECL solution (BIO‐RAD, 1 705 061) was used to visualize detected proteins. […]

ApoER2 = target: T1, ApoER2 (Mus musculus, UniProt Q924X6); assay: Co‐immunoprecipitation of wild‐type/mutated sclerostin with ApoER2 in macrophages (RAW264.7); format: binding; settings: Figure 6E
T1 construct: FLAG; expressed in transfected cells; host or cells: RAW264.7
T1 sequence (Q924X6 29-996): B1 Low-density lipoprotein … with A225P, A226T, A240G, A241W, A242R
Protocol: The interaction of full‐length (FL)/truncated ApoER2 with full‐length (FL) /truncated sclerostin in macrophages (RAW264.7) were determined by pull‐down assay and Co‐IP assay. The binding affinity of ApoER2 to FL sclerostin and sclerostin loop2 were determined by biolayer interferometry (BLI) analysis. Moreover, the binding of sclerostin to ApoER2 on macrophages (RAW264.7) was examined by confocal microscopy.

sclerostin loop2, sequence (Q99P68 107-132 limits assumed): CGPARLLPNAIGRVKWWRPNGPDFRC

| Molecule | Binding ability of sclerostin loop2 to ApoER2 mutein versus wild‐type ApoER2 (sclerostin loop2) | Interaction with ApoER2 by co‐IP (ApoER2) |
| --- | --- | --- |
| B1 | dramatically weaker | – |
| B2 | dramatically weaker | – |
| B3 | – | No interaction |
